For seven substances, stoichiometry N and Kd results are on record in PMC11024197.

Experiment [1] addresses PEX14 NTD (1-104) (human) (UniProt O75381). The experiment is described as follows: ITC; PEX14 NTD (1-104) (20-60 µM) in the cell, titrated with PEX5 W peptides or W0 (0.4-0.6 mM), PEX13 FxxxF (0.46 mM) or PEX13 SH3-CTR (1 mM); 25 °C; 20 mM Tris pH 7.5, 50 mM NaCl; one-site binding model; PEX14 concentration corrected with the fit; triplicates.
Experiment [2] shares this target. The experiment is described as follows: ITC; PEX14 (1-104) (20-60 uM, concentration corrected with the fit) in the cell, peptide or fragment in the syringe; 25 °C, 20 mM Tris pH 7.5, 50 mM NaCl; one-site binding model; single runs of triplicates and their averages.
For experiment [3] the target is unchanged. In words: ITC; PEX14 (1-104) at 20-60 µM titrated with PEX5 W peptides or W0 (0.4-0.6 mM), PEX13 FxxxF (0.46 mM) or PEX13 SH3-CTR (1 mM); 25 °C; 20 mM Tris pH 7.5, 50 mM NaCl; one-site model; PEX14 concentration corrected with the fit; triplicates.
In experiment [4] the target is PEX13 SH3 domain (human) (UniProt Q92968). In words: ITC; PEX13 SH3 at 35-48 µM titrated with PEX5 15-mer peptides or PEX5 1-76 (0.6-0.7 mM) or PEX13 350-403 (0.9-1 mM); 25 °C; 20 mM Tris pH 7.5, 50 mM NaCl; one-site model; triplicates.
Experiment [5] shares this target. In words: ITC; PEX13 SH3 (35-48 uM) in the cell, peptide or fragment in the syringe; 25 °C, 20 mM Tris pH 7.5, 50 mM NaCl; one-site binding model; single runs of triplicates and their averages.

“And” between values parts separate entries of the source, which are not always exact repeats. Equal values may be shown once.

PEX14 NTD (1-104) (human), sequence (O75381 1-104): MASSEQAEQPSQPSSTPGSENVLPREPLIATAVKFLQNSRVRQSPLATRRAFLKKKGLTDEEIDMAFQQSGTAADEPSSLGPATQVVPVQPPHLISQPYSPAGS

In the case of PEX5 W4 peptide, the stoichiometry N amounted to 1 in experiment [1] and 1 sites in experiment [2].
Regarding PEX5 W2 peptide, the stoichiometry N in experiment [1] turned out to be 1; in experiment [2], 1 sites.
On to “PEX13 SH3-CTR (residues 261-403) (from UniProt Q92968 261-403) (domain or fragment)”, for which, in experiment [3], the Kd was found to be 5.4 µM and the stoichiometry N worked out at 1.
For “PEX13 FxxxF peptide (residues 350-403) (from UniProt Q92968 350-403) (domain or fragment)”, in experiment [3], the Kd was determined as 2.8 µM and the stoichiometry N was 1. In the experiment with PEX13 SH3 domain (human) [4], this substance showed a Kd of 27 µM.
Take PEX5 W3 peptide: the figures for the stoichiometry N in experiment [1] and in experiment [2] were 1 and 1 sites, respectively.
On to “PEX13 FF/W4 (FxxxF fragment with the core motif FESVF replaced by WYDEY) (domain or fragment)”, for which, in the experiment with PEX13 SH3 domain (human) [5], the Kd is 6.48 µM and 6.11 µM and 6.59 µM; the stoichiometry N amounted to 1 sites.
With “PEX13 FF/W4 (FxxxF core motif FESVF replaced with WYDEY), as titrated onto the SH3 domain (domain or fragment)”, the Kd in the experiment with PEX13 SH3 domain (human) [4] amounted to 6 µM. That is a single-digit micromolar value.
